Laboratory results from the supplement of paper PMC7125110.
± gives the standard error. Variants at the floor of the assay were thinned out.

B1: glmS ribozyme (parent)
chain: AUAAAAGCGCCAGAACUACAGAAAUGUAGUUGACGAGGAGGAGGUUUAUCGAAUUUUCGGCGGAUGCCUCCAAA

Experiments:
Settings in all cases: with glucosamine-6-phosphate
[1] = variants of: B1; experiment: self-cleavage kobs at 40 uM GlcN6P; higher = faster cleavage; RNA array
Summary of the method: (§1)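 Tiles bearing barcoded ribozyme variants, transcribed in situ by E. coli RNA polymerase on sequenced MiSeq chips, were imaged over ~14 h at 37 °C using a hybridised Cy3 probe. Glucosamine-6-phosphate was supplied at 40 μM to 10 mM in HEPES/KCl/Mg(OAc)2 buffer. kobs came from one- or two-exponential decay fits to normalised per-tile medians, and weighted Michaelis–Menten fits then provided kcat and KM.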

[2] = variants of: B1; experiment: self-cleavage kobs at 160 uM GlcN6P; higher = faster cleavage; RNA array
Summary of the method: as §1

[3] = variants of: B1; experiment: self-cleavage kobs at 640 uM GlcN6P; higher = faster cleavage; RNA array
Summary of the method: as §1

[4] = variants of: B1; experiment: self-cleavage kobs at 2500 uM GlcN6P; higher = faster cleavage; RNA array
Summary of the method: as §1

[5] = variants of: B1; experiment: self-cleavage kobs at 10000 uM GlcN6P; higher = faster cleavage; RNA array
Summary of the method: as §1

Variant | self-cleavage kobs at 40 uM GlcN6P [1] | self-cleavage kobs at 160 uM GlcN6P [2] | self-cleavage kobs at 640 uM GlcN6P [3] | self-cleavage kobs at 2500 uM GlcN6P [4] | self-cleavage kobs at 10000 uM GlcN6P [5]
U30A G44U | < 1e-05 s⁻¹ | – | – | – | –
C10A U46G | < 1e-05 s⁻¹ | < 1e-05 s⁻¹ | < 1e-05 s⁻¹ | < 1e-05 s⁻¹ | –
A6G G40U A52G U65G | < 1e-05 s⁻¹ | – | – | – | < 1e-05 s⁻¹
G7C U30G G35U G37U U57C C71G | < 1e-05 s⁻¹ | – | – | – | < 1e-05 s⁻¹
A6C C11U A33C A36G U47G G59A | < 1e-05 s⁻¹ | – | < 1e-05 s⁻¹ | – | –
U31C G60A | < 1e-05 s⁻¹ | – | < 1e-05 s⁻¹ | – | < 1e-05 s⁻¹
A6G G35U A42G U46G G66U | < 1e-05 s⁻¹ | – | – | – | –
A15U C34G | < 1e-05 s⁻¹ | < 1e-05 s⁻¹ | < 1e-05 s⁻¹ | – | < 1e-05 s⁻¹
G9A C11G | < 1e-05 s⁻¹ | < 1e-05 s⁻¹ | < 1e-05 s⁻¹ | < 1e-05 s⁻¹ | < 1e-05 s⁻¹
A6G A36C G51U | < 1e-05 s⁻¹ | – | – | – | < 1e-05 s⁻¹
U31C U69C C70A | < 1e-05 s⁻¹ | – | – | – | –
A12C U30G G32U A33C C58U | < 1e-05 s⁻¹ | – | – | – | < 1e-05 s⁻¹
C16A G41C | < 1e-05 s⁻¹ | < 1e-05 s⁻¹ | < 1e-05 s⁻¹ | – | –
C11G A12U | < 1e-05 s⁻¹ | – | – | < 1e-05 s⁻¹ | –
G7U A42G | < 1e-05 s⁻¹ | < 1e-05 s⁻¹ | < 1e-05 s⁻¹ | < 1e-05 s⁻¹ | < 1e-05 s⁻¹
A15U G59C | < 1e-05 s⁻¹ | < 1e-05 s⁻¹ | < 1e-05 s⁻¹ | < 1e-05 s⁻¹ | < 1e-05 s⁻¹
U30A G63U | < 1e-05 s⁻¹ | < 1e-05 s⁻¹ | – | – | < 1e-05 s⁻¹
G7U U31G G62A | < 1e-05 s⁻¹ | – | – | < 1e-05 s⁻¹ | < 1e-05 s⁻¹
G9C C10A U56A | < 1e-05 s⁻¹ | – | < 1e-05 s⁻¹ | < 1e-05 s⁻¹ | –
G7U A36U G40C | < 1e-05 s⁻¹ | – | – | < 1e-05 s⁻¹ | < 1e-05 s⁻¹
G44U U57C | < 1e-05 s⁻¹ | – | < 1e-05 s⁻¹ | < 1e-05 s⁻¹ | < 1e-05 s⁻¹
A33C G35C | < 1e-05 s⁻¹ | < 1e-05 s⁻¹ | < 1e-05 s⁻¹ | – | < 1e-05 s⁻¹
C11U G32C | < 1e-05 s⁻¹ | < 1e-05 s⁻¹ | < 1e-05 s⁻¹ | – | < 1e-05 s⁻¹
C16A G29U | 0.000701 ± 7.4e-05 s⁻¹ | 0.00212 ± 0.00064 s⁻¹ | 0.00517 ± 0.00081 s⁻¹ | 0.0144 ± 0.0033 s⁻¹ | 0.0387 ± 0.0071 s⁻¹
G7A U56A | < 1e-05 s⁻¹ | < 1e-05 s⁻¹ | < 1e-05 s⁻¹ | – | –

Variant | self-cleavage kobs at 40 uM GlcN6P [1] | self-cleavage kobs at 160 uM GlcN6P [2] | self-cleavage kobs at 640 uM GlcN6P [3] | self-cleavage kobs at 2500 uM GlcN6P [4] | self-cleavage kobs at 10000 uM GlcN6P [5]
C10G A14G C16A G41C | < 1e-05 s⁻¹ | – | – | – | < 1e-05 s⁻¹
C11U G32C A36G G62A C71G | < 1e-05 s⁻¹ | – | < 1e-05 s⁻¹ | – | –
C8U A39U | < 1e-05 s⁻¹ | < 1e-05 s⁻¹ | – | < 1e-05 s⁻¹ | –
A15U A36C U46G | < 1e-05 s⁻¹ | – | – | – | < 1e-05 s⁻¹
G62U G63U C68G | < 1e-05 s⁻¹ | – | – | – | –
C34U A53G | < 1e-05 s⁻¹ | – | – | – | < 1e-05 s⁻¹
C10U U55G | < 1e-05 s⁻¹ | < 1e-05 s⁻¹ | – | – | 2.49e-05 ± 9.6e-06 s⁻¹
U30C G37C C58A G60U | < 1e-05 s⁻¹ | – | – | – | < 1e-05 s⁻¹
A15C G29C U30C U31G G38C G60A U69G | < 1e-05 s⁻¹ | – | – | – | –
C8A U25C G37U U69G | 0.000134 ± 3.6e-05 s⁻¹ | – | 0.000488 ± 0.00011 s⁻¹ | – | –
G13U A36G G62U G66U C70A | < 1e-05 s⁻¹ | – | – | – | –
C11A G37C A39G G41A U47G | < 1e-05 s⁻¹ | – | – | – | < 1e-05 s⁻¹
G9U U56G C71A | < 1e-05 s⁻¹ | – | – | – | –
C8U G63C | < 1e-05 s⁻¹ | < 1e-05 s⁻¹ | < 1e-05 s⁻¹ | < 1e-05 s⁻¹ | < 1e-05 s⁻¹
A12U C34G G40C C50A | < 1e-05 s⁻¹ | < 1e-05 s⁻¹ | < 1e-05 s⁻¹ | < 1e-05 s⁻¹ | –
C16U A53C | 0.000147 ± 2.2e-05 s⁻¹ | 0.000234 ± 6.4e-05 s⁻¹ | 0.00248 ± 0.00046 s⁻¹ | 0.00358 ± 0.00061 s⁻¹ | 0.00687 ± 0.0013 s⁻¹
A14U C16G G32U G44A A48C C61U U69G | < 1e-05 s⁻¹ | – | – | – | –
C10U U31C C34U | < 1e-05 s⁻¹ | – | – | – | –
G41U C68U C71A | < 1e-05 s⁻¹ | – | – | – | –
C8G C50A C61G G63A C71G | 8.24e-05 ± 3.5e-05 s⁻¹ | – | – | – | 0.000367 ± 0.00014 s⁻¹
U45G C50U A53U | < 1e-05 s⁻¹ | – | – | – | –
A6C G63A | < 1e-05 s⁻¹ | < 1e-05 s⁻¹ | < 1e-05 s⁻¹ | – | –
G7U C8G U47G C58U C61G U69G | 0.000436 ± 0.00012 s⁻¹ | – | – | – | 0.000464 ± 0.00012 s⁻¹
U45G A52C U55C C71U | < 1e-05 s⁻¹ | – | – | – | –
